Laboratory results reported in patent publication US8541373B2, “BChE albumin fusions for the treatment of cocaine abuse” (priority 2009, dated 2013).

Tested on: cocaine
Assay: Plasma cocaine, benzoylecgonine and ecgonine methyl ester (LC-MS) and cocaine PK after IV cocaine post-AlbuBChE
Assay type: in vivo, cynomolgus monkeys
Conditions: 0.2 mg/kg IM
Procedure: Blood was placed into K2EDTA blood collection tubes with esterase inhibitor diisopropylfluorophosphate (DFP). Tubes were inverted several times and placed on wet ice upon collection. Samples were centrifuged at 2-8° C. within 45 minutes of collection. The resultant plasma was recovered and a single 200 μL aliquot of plasma was placed into polypropylene tubes. Plasma samples were frozen over dry ice and stored at −75±15° C.
The following outline describes the LC-MS-based assay employed for the measurement of cocaine in plasma samples. Prior to MS analysis, plasma samples, calibration standards and controls were extracted using supported liquid extraction (SLE-ISOLUTE, Biotage). Twenty-five microliters of samples (25 μL) received 150 μl of 5% Ammonium hydroxide and 25 μl internal standard solution (Cocaine-d3). After mixing and transfer to SLE plate, samples were eluted with methylene chloride and evaporated to dryness. After resuspension in 50 μl of reconstitution solution—5% ACM in 10 mM ammonium acetate in water, 10 μl was injected onto Thermo Hypercarb column at 0.5 ml/min. Mobile phase was biphasic. Mass spectrophotometric detection was performed using Api 4000, APCI positive interface and Multiple Reaction Monitoring (MRM). Plasma concentrations of cocaine, benzoylecgonine and ecgonine methyl ester were determined using this assay.
When the data permits, pharmacokinetic parameter values for cocaine and its metabolites were determined using plasma concentration-times profiles for individual animals at all the study days of cocaine administration. […] Specifically the model for non-compartmental analysis with IV bolus input for cocaine and extravascular input for the metabolites.

[1] = cocaine 1 mg/kg IV 2 hr post-AlbuBChE
[2] = cocaine 1 mg/kg IV 2 hr post-AlbuBChE, 5 min after cocaine
[3] = cocaine 1 mg/kg IV 2 hr post-AlbuBChE, 10 min after cocaine
[4] = cocaine 1 mg/kg IV 2 hr post-AlbuBChE, 15 min after cocaine
[5] = cocaine 1 mg/kg IV 2 hr post-AlbuBChE, 20 min after cocaine
[6] = cocaine 1 mg/kg IV 2 hr post-AlbuBChE, 30 min after cocaine
[7] = cocaine 1 mg/kg IV 2 hr post-AlbuBChE, 40 min after cocaine
[8] = cocaine 1 mg/kg IV 2 hr post-AlbuBChE, 60 min after cocaine
[9] = cocaine 1 mg/kg IV 48 hr post-AlbuBChE
[10] = cocaine 1 mg/kg IV 48 hr post-AlbuBChE, 5 min after cocaine
[11] = cocaine 1 mg/kg IV 48 hr post-AlbuBChE, 10 min after cocaine
[12] = cocaine 1 mg/kg IV 48 hr post-AlbuBChE, 15 min after cocaine
[13] = cocaine 1 mg/kg IV 48 hr post-AlbuBChE, 20 min after cocaine
[14] = cocaine 1 mg/kg IV 48 hr post-AlbuBChE, 30 min after cocaine
[15] = cocaine 1 mg/kg IV 48 hr post-AlbuBChE, 40 min after cocaine
[16] = cocaine 1 mg/kg IV 48 hr post-AlbuBChE, 60 min after cocaine
[17] = cocaine 1 mg/kg IV 96 hr post-AlbuBChE
[18] = cocaine 1 mg/kg IV 96 hr post-AlbuBChE, 5 min after cocaine
[19] = cocaine 1 mg/kg IV 96 hr post-AlbuBChE, 10 min after cocaine
[20] = cocaine 1 mg/kg IV 96 hr post-AlbuBChE, 15 min after cocaine
[21] = cocaine 1 mg/kg IV 96 hr post-AlbuBChE, 20 min after cocaine
[22] = cocaine 1 mg/kg IV 96 hr post-AlbuBChE, 30 min after cocaine
[23] = cocaine 1 mg/kg IV 96 hr post-AlbuBChE, 40 min after cocaine
[24] = cocaine 1 mg/kg IV 96 hr post-AlbuBChE, 60 min after cocaine
[25] = cocaine 1 mg/kg IV 120 hr post-AlbuBChE
[26] = cocaine 1 mg/kg IV 120 hr post-AlbuBChE, 5 min after cocaine
[27] = cocaine 1 mg/kg IV 120 hr post-AlbuBChE, 10 min after cocaine
[28] = cocaine 1 mg/kg IV 120 hr post-AlbuBChE, 15 min after cocaine
[29] = cocaine 1 mg/kg IV 120 hr post-AlbuBChE, 20 min after cocaine
[30] = cocaine 1 mg/kg IV 120 hr post-AlbuBChE, 30 min after cocaine

Substance: AlbuBChE
- Mean benzoylecgonine AUC(0-t) [1]: 3136 ng·min/mL
- Mean cocaine AUC(0-t) [1]: 11878 ng·min/mL
- Mean cocaine C0 [1]: 628 ng/mL
- Ecgonine methyl ester plasma concentration (mean) [2]: 51.6 ng/mL
- Mean benzoylecgonine plasma concentration [2]: 50.6 ng/mL
- Mean cocaine plasma concentration [2]: 481 ng/mL
- Ecgonine methyl ester plasma concentration (mean) [3]: 81.9 ng/mL
- Mean benzoylecgonine plasma concentration [3]: 49.7 ng/mL
- Mean cocaine plasma concentration [3]: 370 ng/mL
- Ecgonine methyl ester plasma concentration (mean) [4]: 83.2 ng/mL
- Mean benzoylecgonine plasma concentration [4]: 50.4 ng/mL
- Mean cocaine plasma concentration [4]: 273 ng/mL
- Ecgonine methyl ester plasma concentration (mean) [5]: 154 ng/mL
- Mean benzoylecgonine plasma concentration [5]: 65.1 ng/mL
- Mean cocaine plasma concentration [5]: 227 ng/mL
- Ecgonine methyl ester plasma concentration (mean) [6]: 261 ng/mL
- Mean benzoylecgonine plasma concentration [6]: 28.6 ng/mL
- Mean cocaine plasma concentration [6]: 67.0 ng/mL
- Ecgonine methyl ester plasma concentration (mean) [7]: 120 ng/mL
- Mean benzoylecgonine plasma concentration [7]: 58.0 ng/mL
- Mean cocaine plasma concentration [7]: 115 ng/mL
- Ecgonine methyl ester plasma concentration (mean) [8]: 120 ng/mL
- Mean benzoylecgonine plasma concentration [8]: 60.5 ng/mL
- Mean cocaine plasma concentration [8]: 58.6 ng/mL
- Mean benzoylecgonine AUC(0-t) [9]: 1989 ng·min/mL
- Mean cocaine AUC % Extrap [9]: 15.1%
- Mean cocaine AUC(0-t) [9]: 7713 ng·min/mL
- Mean cocaine AUC(0-∞) [9]: 9094 ng·min/mL
- Mean cocaine C0 [9]: 274 ng/mL
- Mean cocaine CI [9]: 110 mL/min/kg
- Mean cocaine Vss [9]: 3.503 L/kg
- Mean cocaine t½ [9]: 21.2 min
- Ecgonine methyl ester plasma concentration (mean) [10]: 21.1 ng/mL
- Mean benzoylecgonine plasma concentration [10]: 27.3 ng/mL
- Mean cocaine plasma concentration [10]: 235 ng/mL
- Ecgonine methyl ester plasma concentration (mean) [11]: 19.5 ng/mL
- Mean benzoylecgonine plasma concentration [11]: 29.4 ng/mL
- Mean cocaine plasma concentration [11]: 203 ng/mL
- Ecgonine methyl ester plasma concentration (mean) [12]: 23.9 ng/mL
- Mean benzoylecgonine plasma concentration [12]: 29.0 ng/mL
- Mean cocaine plasma concentration [12]: 187 ng/mL
- Ecgonine methyl ester plasma concentration (mean) [13]: 25.8 ng/mL
- Mean benzoylecgonine plasma concentration [13]: 28.2 ng/mL
- Mean cocaine plasma concentration [13]: 146 ng/mL
- Ecgonine methyl ester plasma concentration (mean) [14]: 33.9 ng/mL
- Mean benzoylecgonine plasma concentration [14]: 37.1 ng/mL
- Mean cocaine plasma concentration [14]: 121 ng/mL
- Ecgonine methyl ester plasma concentration (mean) [15]: 50.7 ng/mL
- Mean benzoylecgonine plasma concentration [15]: 36.9 ng/mL
- Mean cocaine plasma concentration [15]: 77.8 ng/mL
- Ecgonine methyl ester plasma concentration (mean) [16]: 37.0 ng/mL
- Mean benzoylecgonine plasma concentration [16]: 35.6 ng/mL
- Mean cocaine plasma concentration [16]: 43.2 ng/mL
- Mean benzoylecgonine AUC(0-t) [17]: 3270 ng·min/mL
- Mean cocaine AUC % Extrap [17]: 14.9%
- Mean cocaine AUC(0-t) [17]: 11145 ng·min/mL
- Mean cocaine AUC(0-∞) [17]: 13008 ng·min/mL
- Mean cocaine C0 [17]: 451 ng/mL
- Mean cocaine CI [17]: 78.1 mL/min/kg
- Mean cocaine Vss [17]: 2.506 L/kg
- Mean cocaine t½ [17]: 21.1 min
- Ecgonine methyl ester plasma concentration (mean) [18]: 26.4 ng/mL
- Mean benzoylecgonine plasma concentration [18]: 49.7 ng/mL
- Mean cocaine plasma concentration [18]: 360 ng/mL
- Ecgonine methyl ester plasma concentration (mean) [19]: 39.4 ng/mL
- Mean benzoylecgonine plasma concentration [19]: 47.7 ng/mL
- Mean cocaine plasma concentration [19]: 301 ng/mL
- Ecgonine methyl ester plasma concentration (mean) [20]: 24.5 ng/mL
- Mean benzoylecgonine plasma concentration [20]: 52.6 ng/mL
- Mean cocaine plasma concentration [20]: 255 ng/mL
- Ecgonine methyl ester plasma concentration (mean) [21]: 29.8 ng/mL
- Mean benzoylecgonine plasma concentration [21]: 55.1 ng/mL
- Mean cocaine plasma concentration [21]: 189 ng/mL
- Ecgonine methyl ester plasma concentration (mean) [22]: 49.8 ng/mL
- Mean benzoylecgonine plasma concentration [22]: 56.5 ng/mL
- Mean cocaine plasma concentration [22]: 165 ng/mL
- Ecgonine methyl ester plasma concentration (mean) [23]: 50.2 ng/mL
- Mean benzoylecgonine plasma concentration [23]: 55.2 ng/mL
- Mean cocaine plasma concentration [23]: 118 ng/mL
- Ecgonine methyl ester plasma concentration (mean) [24]: 43.4 ng/mL
- Mean benzoylecgonine plasma concentration [24]: 57.8 ng/mL
- Mean cocaine plasma concentration [24]: 60.5 ng/mL
- Mean benzoylecgonine AUC(0-t) [25]: 3583 ng·min/mL
- Mean cocaine AUC % Extrap [25]: 16.1%
- Mean cocaine AUC(0-t) [25]: 11611 ng·min/mL
- Mean cocaine AUC(0-∞) [25]: 14059 ng·min/mL
- Mean cocaine C0 [25]: 391 ng/mL
- Mean cocaine CI [25]: 72.5 mL/min/kg
- Mean cocaine Vss [25]: 2.338 L/kg
- Mean cocaine t½ [25]: 23.0 min
- Ecgonine methyl ester plasma concentration (mean) [26]: 18.9 ng/mL
- Mean benzoylecgonine plasma concentration [26]: 55.1 ng/mL
- Mean cocaine plasma concentration [26]: 349 ng/mL
- Ecgonine methyl ester plasma concentration (mean) [27]: 28.9 ng/mL
- Mean benzoylecgonine plasma concentration [27]: 46.9 ng/mL
- Mean cocaine plasma concentration [27]: 312 ng/mL
- Ecgonine methyl ester plasma concentration (mean) [28]: 27.6 ng/mL
- Mean benzoylecgonine plasma concentration [28]: 53.1 ng/mL
- Mean cocaine plasma concentration [28]: 267 ng/mL
- Ecgonine methyl ester plasma concentration (mean) [29]: 34.5 ng/mL
- Mean benzoylecgonine plasma concentration [29]: 55.9 ng/mL
- Mean cocaine plasma concentration [29]: 218 ng/mL
- Ecgonine methyl ester plasma concentration (mean) [30]: 136 ng/mL
- Mean benzoylecgonine plasma concentration [30]: 64.2 ng/mL
- Mean cocaine plasma concentration [30]: 160 ng/mL
